The labels stand for the following.
B2: GST-c-IAP-1(BIR) (other, human, UniProt Q13490 1-350, looked up)
chain: MHKTASQRLFPGPSYQNIKSIMEDSTILSDWTNSNKQKMKYDFSCELYRMSTYSTFPAGVPVSERSLARAGFYYTGVNDKVKCFCCGLMLDNWKLGDSPIQKHKQLYPSCSFIQNLVSASLGSTSKNTSPMRNSFAHSLSPTLEHSSLFSGSYSSLSPNPLNSRAVEDISSSRTNPYSYAMSTEEARFLTYHMWPLTFLSPSELARAGFYYIGPGDRVACFACGGKLSNWEPKDDAMSEHRRHFPNCPFLENSLETLRFSISNLSMQTHAARMRTFMYWPSSVPVQPEQLASAGFYYVGRNDDVKCFCCDGGLRCWESGDDPWVEHAKWFPRCEFLIRMKGQEFVDEIQG
notes: range 1-350; not shown: glutathione S-transferase encoded by vector pGEX4T; vector linker not described
B6: purified recombinant active caspase-3 (His6-tagged) (enzyme)
chain 1: SGISLDNSYKMDYPEMGLCIIINNKNFHKSTGMTSRSGTDVDAANLRETFRNLKYEVRNKNDLTREEIVELMRDVSKEDHSKRSSFVCVLLSHGEEGIIFGTNGPVDLKKITNFFRGDRCRSLTGKPKLFIIQACRGTELDCGIETD
chain 2: SGVDDDMACHKIPVEADFLYAYSTAPGYYSWRNSKDGSWFIQSLCAMLKQYADKLEFMHILTRVNRKVATEFESFSFDATFHAKKQIPCIVSMLTKELYFYH
notes: domain: large subunit;domain: small subunit; also called His6-caspase-3; CPP32

One assay relates to pro-caspase-9 processing. Briefly: Cytochrome c-induced processing of pro-caspase-9 in 293 cell cytosolic extracts. As to conditions: 10 µM cytochrome c, 1 mM dATP, 30 °C, 30 minutes. Type of assay: biochemical. The method, then:
For the results shown in Figure 4, in vitro translated ^35S-labeled pro-caspase-9 was added to cytosolic extracts from 293 cells, and subsequently incubated for 30 min at 30 °C with (lanes 2-6) or without (lane 1) 10 µM cytochrome c and 1 mM dATP in the presence or absence of 0.2 µM GST-IAP proteins or a GST control protein. Cytochrome c induced processing of pro-caspase-9 was subsequently monitored by SDS-PAGE and autoradiography.
Pro-caspase-9 inhibition by Ac-DEVD-fmk, zVAD-fmk and XIAP was compared as follows. In vitro translated ^35S-labeled pro-caspase-9 was added to cytosolic extracts from 293 cells containing 10 µM cytochrome c and 1 mM dATP. Samples were incubated at 30 °C for 30 minutes in the presence of the indicated concentrations of inhibitors. Proteins were separated on SDS-PAGE gels, dried directly, and exposed to film.

In the next assay the test system is 293T cells. The assay can be described thus: Bax-induced apoptosis and caspase-3 processing in transfected 293T cells. Type of assay: cell-based, Human. As to conditions: PI staining, 24 hr; Bax expressing cells treated with 50 µM inhibitor (Bax alone about 25%). On the procedure: N-benzyloxycarbonyl-Val-Ala-Asp fluoromethylketone (zVAD-fmk; 50 µM) (Bachem California; Torrance CA) was added immediately after transfection of the Bax plasmid. Transfection efficiency was uniformly 80-90%, as determined by X-Gal staining following cotransfection with pCMV-βGal.
Cells were maintained in culture for 24 hr, then floating and attached cells were harvested and an aliquot was removed and the percent of dead cells was determined by either trypan blue or propidium iodide (PI) dye exclusion assay. A second aliquot was used to assess the percentage of apoptotic cells with subdiploid DNA content by FACS analysis of PI stained, ethanol fixed cells. The remaining cell pellets were lysed in 10 mM HEPES (pH 7.5), 142 mM KCl, 1 mM EGTA, 1 mM DTT, 0.2% NP-40, 0.1 mM PMSF and used for immunoblot analysis or for protease assays.

Assay [1] concerns the target purified recombinant active caspase-7 (His6-tagged) (UniProt P55210). Briefly: progress curves of DEVD-AFC hydrolysis by caspase-7 (150 pM) with 0.025 to 1.5 µM IAP.
Assay [2] concerns the target B6. The assay can be described thus: GST pull-down on glutathione-SEPHAROSE, immunoblot.
Assay [3] concerns the target B6. Briefly: progress curves of DEVD-AFC hydrolysis by caspase-3 (7 pM) with 0.025 to 1.5 µM IAP.
Assay [4] concerns the target T1, GST-c-IAP-1 (human, UniProt Q13490 1-618).
T1 construct: domain: full length; also called HIAP-2; hMIHB; not shown: glutathione S-transferase encoded by vector pGEX4T; vector linker not described
Briefly: opening sentence of Example VI.

Assay [5] concerns the target T2, GST-c-IAP-2 (human, UniProt Q13489 1-604).
T2 construct: domain: full length; also called HIAP-1; hMIHC; not shown: glutathione S-transferase encoded by vector pGEX4T; vector linker not described
Briefly: opening sentence of Example VI.

A further assay addresses T3, myc-tagged c-IAP-2 (human, UniProt Q13489 1-604).
T3 construct: also called pcDNA3myc-c-IAP-2; pcDNA3-myc-c-IAP-2; not shown: Myc tag of pcDNA3myc
The assay can be described thus: legend of Figure 8: anti-myc immunoprecipitation, anti-FLAG immunoblot.

In a further assay the target is T4, myc-tagged c-IAP-1 (human, UniProt Q13490 1-618).
T4 construct: also called pcDNA3myc-c-IAP-1; pcDNA3-myc-IAP-1; not shown: Myc tag of pcDNA3myc
The assay is described as above.

The target of the assay “GST-c-IAP-1(BIR)” is B2. Briefly: glutathione-SEPHAROSE affinity chromatography.
The target of assay [6] is T1, GST-c-IAP-1. The assay can be described thus: opening sentence of Example IV.
In assay [7] the target is T2, GST-c-IAP-2. Briefly: opening sentence of Example IV.
Assay [8] deals with T1, GST-c-IAP-1. Briefly: GST-IAP added to 293 extracts previously treated with cytochrome c, recovered on glutathione-Sepharose, anti-caspase-3 immunoblot.
For assay [9], the target named is T2, GST-c-IAP-2. The description is as above.

“N-benzyloxycarbonyl-Val-Ala-Asp fluoromethylketone [zVAD-fmk]”: the “concentration to completely abolish processing of pro-caspase-9” value with pro-caspase-9 processing is on record as “at least 5 µM”. In addition, the apoptotic cells result with 293T cells is listed as “about 5%”.
Consider GST-c-IAP-2 (from UniProt Q13489 1-604), for which the Ki in [1] turned out to be 26 nM.

B1: GST-CD40 cytosolic domain (other, UniProt P25942 216-277, looked up)
chain: KKVAKKPTNKAPHPKQEPQEINFPDDLPGSNTAAPVQETLHGCQPVTQEDGKESRISVQERQ
notes: domain: cytosolic domain; Control protein; not shown: glutathione S-transferase
B1: the binding result in assay [2] is “no binding”.
B2: the Ki stood at 160 nM in [1] and 330 nM in [3].

B3: GST-c-IAP-2(BIR) (other, human, UniProt Q13489 1-335, looked up)
chain: MNIVENSIFLSNLMKSANTFELKYDLSCELYRMSTYSTFPAGVPVSERSLARAGFYYTGVNDKVKCFCCGLMLDNWKRGDSPTEKHKKLYPSCRFVQSLNSVNNLEATSQPTFPSSVTNSTHSLLPGTENSGYFRGSYSNSPSNPVNSRANQDFSALMRSSYHCAMNNENARLLTFQTWPLTFLSPTDLAKAGFYYIGPGDRVACFACGGKLSNWEPKDNAMSEHLRHFPKCPFIENQLQDTSRYTVSNLSMQTHAARFKTFFNWPSSVLVNPEQLASAGFYYVGNSDDVKCFCCDGGLRCWESGDDPWVQHAKWFPRCEYLIRIKGQEFIRQVQ
notes: range 1-335; not shown: glutathione S-transferase encoded by vector pGEX4T; vector linker not described
With B3, the Ki in assay [1] turned out to be 238 nM; in [3] it was 260 nM.

B4: in vitro translated 35S-labeled pro-caspase-9 (enzyme, UniProt P55211 1-416, looked up)
chain: MDEADRRLLRRCRLRLVEELQVDQLWDALLSRELFRPHMIEDIQRAGSGSRRDQARQLIIDLETRGSQALPLFISCLEDTGQDMLASFLRTNRQAAKLSKPTLENLTPVVLRPEIRKPEVLRPETPRPVDIGSGGFGDVGALESLRGNADLAYILSMEPCGHCLIINNVNFCRESGLRTRTGSNIDCEKLRRRFSSLHFMVEVKGDLTAKKMVLALLELAQQDHGALDCCVVVILSHGCQASHLQFPGAVYGTDGCPVSVEKIVNIFNGTSCPSLGGKPKLFFIQACGGEQKDHGFEVASTSPEDESPGSNPEPDATPFQEGLRTFDQLDAISSLPTPSDIFVSYSTFPGFVSWRDPKSGSWYVETLDDIFEQWAHSEDLQSLLLRVANAVSVKGIYKQMPGCFNFLRKKLFFKTS
modifications: 35S-L-methionine labeled
notes: domain: zymogen; also called zymogen of caspase-9; Mch6
With B4, the binding result with GST-c-IAP-1 [4] and with GST-c-IAP-2 [5] was “binds” each time.

B5: FLAG tagged pro-caspase-9 (enzyme, UniProt P55211 1-416, looked up, not shown: small tags and cut ends)
chain: MDEADRRLLRRCRLRLVEELQVDQLWDALLSRELFRPHMIEDIQRAGSGSRRDQARQLIIDLETRGSQALPLFISCLEDTGQDMLASFLRTNRQAAKLSKPTLENLTPVVLRPEIRKPEVLRPETPRPVDIGSGGFGDVGALESLRGNADLAYILSMEPCGHCLIINNVNFCRESGLRTRTGSNIDCEKLRRRFSSLHFMVEVKGDLTAKKMVLALLELAQQDHGALDCCVVVILSHGCQASHLQFPGAVYGTDGCPVSVEKIVNIFNGTSCPSLGGKPKLFFIQACGGEQKDHGFEVASTSPEDESPGSNPEPDATPFQEGLRTFDQLDAISSLPTPSDIFVSYSTFPGFVSWRDPKSGSWYVETLDDIFEQWAHSEDLQSLLLRVANAVSVKGIYKQMPGCFNFLRKKLFFKTS
notes: domain: zymogen; also called Flag-pro-caspase-9; FLAG-caspase-9
For B5, the binding result with myc-tagged c-IAP-2 and with myc-tagged c-IAP-1 was “binds” each time.
In the case of B6, the binding result in the assay with GST-c-IAP-1(BIR), with GST-c-IAP-1 [6] and with GST-c-IAP-2 [7] was “binds” in each case.

B7: processed (active) caspase-3 of 293 cell cytosolic extracts treated with cytochrome c and dATP (enzyme, human)
chain 1: SGISLDNSYKMDYPEMGLCIIINNKNFHKSTGMTSRSGTDVDAANLRETFRNLKYEVRNKNDLTREEIVELMRDVSKEDHSKRSSFVCVLLSHGEEGIIFGTNGPVDLKKITNFFRGDRCRSLTGKPKLFIIQACRGTELDCGIETD
chain 2: SGVDDDMACHKIPVEADFLYAYSTAPGYYSWRNSKDGSWFIQSLCAMLKQYADKLEFMHILTRVNRKVATEFESFSFDATFHAKKQIPCIVSMLTKELYFYH
notes: domain: large subunit;domain: small subunit; Endogenous protein of the extract, detected with anti-caspase-3 antiserum that sees only the zymogen and the large subunit; also called processed caspase-3; band 3
Turning to B7, the binding result with GST-c-IAP-1 [8] and in the assay with GST-c-IAP-2 [9] was “binds” each time.

For the origin of these results see patent EP0983376B1, “SCREENING ASSAYS FOR AGENTS THAT ALTER INHIBITOR OF APOPTOSIS (IAP) PROTEIN REGULATION OF CASPASE ACTIVITY” (The Burnham Institute, priority 1997, dated 1998).
